Numbering of substitutions follows the chain as printed.
B1: 9.19.1 (antibody, human IgG4, V domains shown)
VH: QVQLVESGGGVVQPGRSLRLSCAASGFTFNNYGMHWVRQAPGKGLECVAVIWYDGGNKYYADSVKGRFAISRDNSKNTLYLQMNSLRAEDTAVYYCTAVTKLNYYYGMDVWGQRTTVTVS
VL: QSALTQPASVSGSPGQSITISCTGTSSDVGGYNYVSWYQQHPGKAPKFMIYEVSNRPSGVSNRFSGSKSGNTASLTISGLQAEDEADYYCSSYTSSSILVFGGGTKLTVL
B2: 9.11.1 (antibody, human IgG4, V domains shown)
VH: QVQLVESGGGVVQPGRSLRLSCAASGFTFSVYGMHWVRQAPGKGLEWVAVIWYDGNNKYYVDSVKGRFTISRDNSKNTLYLQLNSLRAEDTAVYYCARERSSSWYFDYWGQGTLVTVSS
VL: QSALTQPASVSGSSGQSITISCTGTSSDVGSYNLVSWYQQHPGKAPKLMIYEVSKRPSGVSNRFSGSKSGNTASLTISGLQAEDEADYYCCSYAGNSNWVFGGGTKLTVL
B3: 8.18.1 (antibody, human IgG4, V domains shown)
VH: QVQLQESGPGLVKPSETLSLTCTVSGGSVSSGGYYWSWIRQPPGKGLEWIGYFYYSGSPNYNPSLKRRIAISVDTSKNQFSLRLSSVTAADTAVYYCARDPMHYYGMDVWGQGTTVTVSS
VL: SSELTQPPSVSVFPGQTANITCSGDKLGDKFACWYQQKPGQSPVLVIYRDNKRPSGIPERFSGSNSGNTATLTISGTQAMDEADYYCQAWDSSTYVVFGGGTKLTVL
B4: 6.26.1 (antibody, human IgG4, V domains shown)
VH: QLQLQESGPGLVKPSETLSLTCTVSGGSISRSSYYWGWIRQPPGKGLEWMGNIYYSGSTHYNPSLKSRVTISVDTSKNQFSLKLSSVTAADTAVFYCAKGREYISSSGYGMDVWGQGTTVTVS
VL: SYELTQPPSVSVSPGQTASITCSGDKLGNKYVCWYQQKPGQSPVLVIFQDSRRPSGIPERFSGSNSGNTATLTISGTQAMDEADYYCQAWDTSTVIFGGGTKLTVL
B5: 9.26.1 (antibody, human IgG4, V domains shown)
VH: B1 VH with R114G
VL: B1 VL with F48L
B6: 8.50.1 (antibody, human IgG4, V domains shown)
VH: QVQLQESGPGLVKPSETLSLTCTVSGGSISSDYWSWIRQPAGKGLEWIGRFYNSGRTNYRPSLKSRITMSVDTSKNQFSLKLSSVTAADTAVYYCARDMYSGRGNWYFDLWGRGTLVTVS
VL: SYELTQPPSVSVSPGQTARITCSGDALPKKYAYWYQQKSGQAPVLVIYEDSKRPSGIPERFSGSSSGTMATLTISGAQVEDEADYYCYSTDSSDNHRVFGGGTKLTVL
B7: 5.36.1 (antibody, human IgG4, V domains shown)
VH: QVQLQQSGPGLVKPSQTLSLTCAISGDSVSSNSAAWNWIRQSPSRGLEWLGRTYYRSKWYNDYAVSVKSRITINPDTSKNQFSLQLNSVTPEDTAVYYCAREEQQLVRYYYYYGMDVWGQGTTVTVS
VL: DIVMTQTPLSLSVTPGQPASISCKSSQSLLHSDGRTYLYWYLQRPGQPPQLLIYEASYRFSGVPDRFSGSGSGTDFTLKISRVEAEDVGIYYCMQSIQLPRTFGQGTRLEIK
B8: 9.2.1 (antibody, human IgG4, V domains shown)
VH: B1 VH with K101T, N103Y, R114G
VL: B1 VL with F48L
B9: 5.5.1 (antibody, IgG4, V domains shown)
VH: B2 VH with V31S, N56D, V61A, K65Q, L83M, A88P
VL: B2 VL with S14P, V60I, N96S, N98T
B10: 9.31.1 (antibody, human IgG4, V domains shown)
VH: QVQLVESGGGLVKPGGSLRLSCAASGFTFSDYYMSWIRQAPGKGLEWVSYIRSSGSTIYYADSVKGRFTISRDNAKNSLYLQMNSLRAEDTAVYYCARTPYSGRYHWYFDLWGRGTLVTVS
VL: B6 VL with K29I, Q37H, D94G
B11: 4.20.1 (antibody, human IgG4, V domains shown)
VH: QVQLVESGGGVVQPGRSLRLSCAASGFTFSNYGMNWVRQAPGKGLEWVAVIWYDGNNKSEADSVKGRFTISRDNSKNTLYLQMNSLRAEDTAVYYCARDSRSGPFDYWGQGTLVTVSS
VL: EIVLTQSPDFQSVTPKEKVTITCRASQSIGSSLHWYQQKPDQSPKLLIKFASQSFSGVPSRISGSGSGTDFTLTINSLEAEDAATYYCHQSSSLPFTFGPGTKVDIK

Molecular target: Cynomolgus monkey IL-1β (cynomolgus monkey)
Assay: Biacore low-res, mAb captured, cyno IL-1β 117 nM, 25C

Cynomolgus monkey IL-1β (cynomolgus monkey), sequence (P48090 117-269 limits assumed): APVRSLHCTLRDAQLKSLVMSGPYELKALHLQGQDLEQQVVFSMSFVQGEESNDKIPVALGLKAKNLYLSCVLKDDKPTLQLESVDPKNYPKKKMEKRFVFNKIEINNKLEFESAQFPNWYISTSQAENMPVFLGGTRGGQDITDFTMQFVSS

Binder	Kd	koff	kon
B1	0.5 nM	0.00012 s⁻¹	260000 M⁻¹ s⁻¹
B2	0.8 nM	0.00027 s⁻¹	330000 M⁻¹ s⁻¹
B3	0.8 nM	9.2e-05 s⁻¹	110000 M⁻¹ s⁻¹
B4	1.1 nM	0.00031 s⁻¹	270000 M⁻¹ s⁻¹
B5	1.3 nM	0.0002 s⁻¹	150000 M⁻¹ s⁻¹
B6	2.5 nM	0.0012 s⁻¹	470000 M⁻¹ s⁻¹
B7	3.4 nM	0.00072 s⁻¹	210000 M⁻¹ s⁻¹
B8	4.5 nM	0.0014 s⁻¹	310000 M⁻¹ s⁻¹
B9	4.6 nM	0.0011 s⁻¹	240000 M⁻¹ s⁻¹
B10	5 nM	0.0015 s⁻¹	300000 M⁻¹ s⁻¹
B11	6.3 nM	0.005 s⁻¹	800000 M⁻¹ s⁻¹

— US20070065439A1
